Data taken from the domain aggregation screens of Martell et al. (2025).

Test: soluble fraction after stress (log2 fold change); higher = more stays soluble; pooled small domains, quantitative proteomics
Details: stress: pH 4
Method in brief: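 Custom libraries of small protein domains were pooled and measured with high-throughput quantitative proteomics after pH 4 stress. The read-out is the fold change in the amount of each domain that stays soluble after the acid stress, taken as a measure of aggregation propensity. Fold changes are on a log2 scale, and higher values mean more of the domain stayed soluble.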

Row | Sequence | soluble fraction (log2)
1 | HMSFNGTILSNYQKTYPNLAKFTYDQANDALVYEGNFIKLNGYGLSRIDPVFFNMNPDEIFIFIKNG | -2.69
2 | HMNTPALRQRTQDVPALLIHFAKYFATKGQTPISFAPDFLEALKDYPWPGNVRELRNLVESMVV | -0.0956
3 | HMADYYSILGLTKNATDIEIKSAFRKLAKIYHPDKNPDPNARVLFEHILKAYDTLINPHSRRRYDSL | 0.22
4 | HMRPLISQTLRIDRGEGDIAGPLGVLAKEYPHLSMGSYPFQKDGIYGAHVVIRGSDPGMVEAAMDKLKAAF | -0.0188
5 | HMVGGIAIGQFNVPRGSVKVTAGGRLLQEGLDYTVNYQAGRVQILDESLKNSNVPIEISTESNS | -0.111
6 | HMKTYGGDNSLHKFDEHHSWMVAKYGPVVKQTINGETKWLKVKKDLTLAQVKKMKLEDVLLPKSQT | 0.245
7 | HMFIQLSQEEKKVVEGLQQRSKTHLDALALEVGQNISKTAAMLMELEMKGVVRALPGKYYEL | -0.239
8 | HMQIYLTPEQFKIIDFMEQMGKITVKDVMDILNIPKRTAQLHLQKLKTLKMIAQTGKGPSSAYLL | -0.797
9 | HMIDDNTIIQIGDSYSKSIRLLGEPIELKNRSLNQKSYFMAVYDFKGRRYRLFFENDVLFDILRD | -0.486
10 | HMYHNKFADLAGFIAFNEKNEEIFTFGKYKGQNVKEVFQRDIGYYGWLQNADFPLYTKKVFTAIQLRSR | -1.07
11 | HMATAADLLQSATGVPRSDALLLLAKLLGVAKERLIAHPETVVSEKTQATFSDWIERVRGGFPTTYLLG | 0.0658
12 | HMVSVLGRRIKELRLQNSMTQMQLAKKLGYKGNSLVAGWELGKNYPSVSSIKRLSEIFDTDLMKYVG | 0.22
13 | HMSAMKYTSEVFQRLSRGQFISSNSIDAETRAIYSDIEENQQEYEDYFSKIDFLLSSGDGFYYFSRK | -1.22
14 | HMLNDKLQTLFSLFPAVDKDLKKKGVTRQILWEQYKRNHPDGVGRSQFNYYYAQWKDQVNPT | 0.22
15 | HMENKLIELTLSLDKSERLDKILTQELSHTRSVIQQWLKSGFVSVNGEIVKANYKAKDGDHVTIQIE | -0.379
16 | HMVVVVELTENEKAVQDVLTKNEGSLEISDLKTKLELSGKQWDKALKGLAKHGITQVAKVDGVVTVSL | -1.4
17 | HMGVGVPVTLLLEKLGEDTLSAQQIMERLGLKSRASFRKVYLVPALEQKLIEMEFPDKPNSSKQRYRR | -0.00401
18 | HMTQFSASSERAGAGGAYRTTLRAMEQNGDLLQISILLPDAVTAKHAATVWPERAQAIYTAILSELLK | -0.167
19 | HMQAQQYYMLLMNKATSALKIEALGANSNKAHQSFGTKTAGGSAVYWGILFNSNGKIYKIVG | -0.15
20 | HMLHQSLVVNAASGRVTVSLDIVPDEDNPYAVLRATDDSDEPLAQVRVAPSFKLNRASALAWIESQFARP | -0.128
21 | HMSQTDTDAKDARQKILALLSDGEWHQKTELLKIDAPKEAVSNAIRYLVLEELISIDHAKVRA | -0.465
22 | HMNIDGLIGKKALVTADIDNVNSKGQIKINGLEWTARSVDDEPIPMGTEVEITAISGVKAIVRKG | 0.309
23 | HMSGIQNNFITRLKKVLAPTIGIAEEISDLLNISIDSAYRRIRGETDFTFEEIYIITRKHKISIDEIYG | -2.14
24 | HMKEGGREEMSEIVERYGDERALMANITSVQNLMNNMKWTLDQALDALGIKGKERTLITQQLQ | -0.145
25 | HMAMDSGELEAIVDRLISEHPDDWAALTAGDDRERKKKSGFFVGEVMKATRGQADGRAVIELLASRSA | -0.605
26 | HMATVIDVATTLGRPITDPDEQRQVLNWIGKTERIISARLGDLAALDRQILADVISEVVARRARN | -0.726

Row | Sequence | soluble fraction (log2)
27 | HMAKITERVMGSAALRDYDPNYLPDEVLKALDGYPPFDGYVYKDGILYARVKIGDTFFIIPPI | -1.84
28 | HMSVTSIEGRVVYDENANKIGIAKQVGIDSTQSMVLVLTKNDGTEGSISWNNIKKIGEIILLGN | -1.34
29 | HMKYYIYQGVGASGELTKIAEVTDQKTYTVTGLQAKTTYRFAVSSYNGLRESTKSNIVTVTT | 0.22
30 | HMQMPDLTGKPRAEAVTTLAALGFTDVKFLDASAGDEPLDYVADQVVRTSPEAGAALASGQQITIYLAT | -0.0191
31 | HMQKTQVVEVAGKSYQLTKMDARTGSYVAFKVAGVLAPSGGKTAEMAAALMGMPRKDFDELQSLLLRTV | ≥ 0.43
32 | HMEETLRELAVKISKQVIKTGRNSVLEPMNPYERRIIHAVISEIEGVSSKSVGEDPNRKVVIMSTNP | -1.07
33 | HMSLAATLSPREIDTVRLIAVGSSNKEIARQLGIAETTVKIHVQHILRKLNLTSRVQVAVFANAEGII | -0.407
34 | HMTTTYTVPKVTGMTLEEAREDPDVVGRFTIVEGEKVTSDTVPVGQIVSQEPAAHRQVGEDGLTITVNIS | -0.2
35 | HMGSWEDALKNWVDSALASGQKGILEQAVPKFERIMIETALTHTAGRRRDASLLLGWGRNTLTRKIKELGI | 0.0465
36 | HMGDTVSGTMLNLKPGVRVVHQIFGPGRVEETTGASLAEFRVTVRFEQKGLKTLLLQYAALQVINSEN | -1.05
37 | HMNVVSIEHIRTHLQNHLSLIGRSIEESFNEAKVIAFVASLFLTHRGYASVSQDMGTNGEIYLQDLW | -0.0149
38 | HMQALDETTVSRIRQKAAARNLLLKVLAGQLGVARPTLSNVLARREAPSAALAARIRAFLDSP | 0.159
39 | HMEPPPSYSALLKQISSGKVKELQLVPARREVIVTYPDGRSATVAILANDQQILRTAEAAGTPLLVK | 0.326
40 | HMISSKDIINDEDGARLGKIADVEIDVATGKILSVHVYRSFKLLHLFGNKDVVQIPWNKIMKIGSDVVIVE | -0.198
41 | HMAQELPYEKVTMNGKMFYVYHVKAGEGLYLISRTFSVNADEILKFNPSIENGLKSGQVLYIPIK | -0.403
42 | HMDIEVEVPNLVGMSLDEAKSIIQSMGLVVGLTIEDPSAKVSDNSVTKQKPTYQTGVKLRSGDMIDIWYAG | -0.676
43 | HMKMDGESQRLLSLIKEQGGSLPIGDKSSPEAIYRLTQMSKKTFKMALGSLYKAKQVVLSPTEVRL | 0.0519
44 | HMAQLVVTVDKLNKRTAIPVTLSDKSSNDSVVEKGFRFEGFPFVNTATNGKKWYKDREGFFYWAGGLMEEA | -0.0297
45 | HMGMLATFVTSAKVPDDVVYAITKEVFENLDEFKKLHPALEGLTRETMLEGLTAPIHPGALKYYKEAGLM | -1.32
46 | HMVSAEQNTLEFIKENVKEDVIEDDIEFYKSLLEDWSVEVDNSSKLLDPGNNNSLLAVIAYSIENEL | -0.414
47 | HMFPNSFSEREKEVVDLLLQAKSNKQIAFSLGITNRTVEYHLGNIFAKLGVSSRSEAILTITNYKNQ | -1.27
48 | HMGVITVRPPIVVRDFAIALNLKPFQVIGNLMELNKVVSVSSVIEEADARKVAERHGYTLEIRH | -0.133
49 | HMGGQYQVRPGETLNQIAARVRPSNMSLSETQKAIIQANPDIFKNGNPNLIFAGDILRIPTGNQI | -0.224
50 | HMRLANGIGTVYKLSGNRRNPYIVRKTTGWEIDEESGKAKQKYITIGYAPTRAKGLEMLMDYNKNP | 0.22
51 | HMEIGELITLYRKQAGLTIDELSEKANVPKGTLNKIIGGITKAPTLETMRSIAYALGKKLADFDN | 0.107
52 | HMGSKKAIPYVSGMSETEAQNELEEAGFKVTSSFQYDDSVESGKVISTTPEAGTKAEKGSTVTMLVSQGSN | 0.0696

Row | Sequence | soluble fraction (log2)
53 | HMQKKYLAVKEYLLEQINSGAYQPDEPIPPEREMAAMLGVNRMTLRRAVEELMYEGLLIRKKGSGTFLTK | -0.714
54 | HMIVNTTRAPYLLGETEQDAMRLARQAGLVPEIVRQSSAEPAGTVILQSHDFDYRMRRGSVILITVSTGPL | 0.22
55 | HMGALAITPDFVGQTREEAERFLRDLDLSFDIGGKGDRILRQEPVAGQRMNLDQPMKLWVGSMNA | -0.313
56 | HMQDTRSHARKMLAAIEALLEGRSGSDIQAYTIHNRSITKMTVPELVKWRSYYQQQVRSEDAAASLA | 0.206
57 | HMDDVGYLRKRLQQALAQLSDDLRNTYTLFQIGKQSIKQIAAETGASESLVKVRIHRAKQKLQELLADLQ | -0.054
58 | HMNRETAISIYRILHILEEPYKEVFTLRTLGDLSYREIADIFGKQENWARVTYHRAKLKIREALVS | -0.71
59 | HMGQNYTIVKGDSLWKIAQKQYGDGSQWKKIYDANKDAIESAAKKYGKKSSDSGKWIYPGVSLII | 0.134
60 | HMITPAARLRALKIRLSVDEVAQIVQRLVNGETVYQIGKPDTGGHAKATVGKINALRLAGQLHFL | -0.259
61 | HMTATVPDSEAGIRLDVYAAALLGVSRAGAQKYIESGAVRVNGLPAPKNRRLESGDVIEAVLPDPE | ≥ 0.43
62 | HMVTFDEISQSLVRDVAARRSLSVQTLHAMVDRYNAGSSINAVANQYGIDRLKLREILIELGVHVAT | -0.44
63 | HMGKKGPELNDNEKIIFNIISKENSMNLDDLKNRTELSNKQWDKAIKGLRSHELVNIEKIDDQLLIHL | -0.598
64 | HMHALSVKFSDEAAKTLPYDILSALRDVLALDPRPGYSRDENKIYRFEYADYNISFSVKDKTLTVLSAEK | -0.148
65 | HMTEEYAVLWRVARQTLKPEAFDVLWMKYREQLSIAEIAGIMNRSETSVKVMLHRARKNLGTALESS | -0.262
66 | HMAVSNWQKLVSSIQTQLKILALYHGPEDGIYGPNTRSAIMLYEENIGLPVTGEPSRELLAHMLDQTD | -0.194
67 | HMDNQSIVRINDGDGAWRQRLGEHFGHLPRDRKRGEIVLQVDAADWRWLQTQGYAPRFDAALSAQLQTTL | -0.147
68 | HMQRYFINEPVPEDQRLVLPKDIAHHLVDVLRAEQNDELEVALNDQKVYLARLISLNPATVELQSDLG | -0.176
69 | HMEINEDEIYEKIMIEIEQDNKVKSTWAKALSQSDGNKDKAESLYISMRFEELKYHQSYQKEELNLKDNQQ | -0.989
70 | HMEPDEQAVKALIAEIDKLSKEKLTLKHEKKLKELREIYDDFTEEEKKLVTNYDILVKMEKRMEVLKKQEG | 0.19
71 | HMHYNMNYLENLTKTELFDLAKNKFGLTYAEMERHLSIPEGGARYAIKAEHSKYGSDIKKYLVEFLLE | -0.134
72 | HMDMDRRALLLALINDRYHASVAEFARAINKAPAQVHQWLSGNRALGNAGARDIEIRLNLAQGYFDH | 0.282
73 | HMEPEVSNTYEKVLGMHHFSSTRSHQLHDLVRQANALELSLGEIESIAQSAKDGAQVISDIKHWMEPNRQ | -0.185
74 | HMSDEIQLQFIQISIFKDHPWADMQIKDMNIIPDLLIVMILRDGERIIPNGNTRIMPGDMVIITAMSANT | -1.7
75 | HMDRVDGWLHDGKLYLRVVDYKTGKKSFDLAELRYGLGLQMLLYLFTLKEEGQMLFGGHEIVPAGVL | -0.282
76 | HMTYADTRDLLIRRGMELLTEQGIAATSIERVLQSTGIPKGSFYHYFATKHDFTLAVMDAYHHY | -0.324
